In data set [1] the test system is IRE1-NLD. The experiment in a line: MST, COX-2 titrated to RED-labeled IRE1-NLD. The format is binding. The conditions noted are these: red labelled IRE1-NLD, Suppl. Fig. S9. The protocol: MST was carried out using a Monolith NT.115 instrument (NanoTemper). To evaluate COX-2 binding to IRE1-NLD, an increasing concentration of purified COX-2 protein (0–10 µM) was incubated with RED-labeled purified IRE1-NLD protein (NanoTemper; as per manufacturer’s protocol). The reverse was also performed, with RED-labeled purified COX-2 incubated with an increasing concentration of purified IRE1-NLD. Positive (cyclophilin A) and negative controls (carbonic anhydrase) were included. […] Positive (cyclophilin A) and negative controls (carbonic anhydrase) were included. […] Experiments were done in triplicate and data evaluation was performed using the Monolith software (NanoTemper).

Data set [2] concerns COX-2 peroxidase. As to conditions: COX-2 H374Y mutant; cited from earlier work. From the text:
Thus, we generated a cell line overexpressing His-tagged COX-2 (HEK293 COX-2 OE) as well as a cell line overexpressing the His-tagged COX-2 H374Y mutant (Fig. 6A), which has a 300-fold reduction in peroxidase activity.

B1: COX-2 H374Y: COX-2 H374Y mutant protein (protein)
chain: ANPCCSHPCQNRGVCMSVGFDQYKCDCTRTGFYGENCSTPEFLTRIKLFLKPTPNTVHYILTHFKGFWNVVNNIPFLRNAIMSYVLTSRSHLIDSPPTYNADYGYKSWEAFSNLSYYTRALPPVPDDCPTPLGVKGKKQLPDSNEIVEKLLLRRKFIPDPQGSNMMFAFFAQHFTHQFFKTDHKRGPAFTNGLGHGVDLNHIYGETLARQRKLRLFKDGKMKYQIIDGEMYPPTVKDTQAEMIYPPQVPEHLRFAVGQEVFGLVPGLMMYATIWLREHNRVCDVLKQEHPEWGDEQLFQTSRLILIGETIKIVIEDYVQHLSGYHFKLKFDPELLFNKQFQYQNRIAAEFNTLYHWYPLLPDTFQIHDQKYNYQQFIYNNSILLEHGITQFVESFTRQIAGRVAGGRNVPPAVQKVSQASIDQSRQMKYQSFNEYRKRFMLKPYESFEELTGEKEMSAELEALYGDIDAVELYPALLVEKPRPDAIFGETMVEVGAPFSLKGLMGNVICSPAYWKPSTFGGEVGFQIINTASIQSLICNNVKGCPFTSFSVPDPELIKTVTINASSSRSGLDDINPTVLLKERSTEL
modifications: left off: His6, end not stated, state not stated
notes: COX-2 H374Y mutant protein
Regarding B1, the “binding to IRE1-NLD (MST), wild-type and H374Y” value in data set [1] is given as “bound to IRE1-NLD”. Also, the “fold reduction in peroxidase activity” value in data set [2] is 300 fold.

Source of the values: PMC6232179 (Scientific Reports, 2018).
